# Experimental data as given in the supplement of paper PMC6755084.
# B1: F1*; the commonest letter at each place (parent)
# chain: GAGACCGCAACTGAAAAGTTGTTATCACTTGTCGTAAGACACTTTGGATGGGTTGAAGTTCTGCACGTAGAAGCAAAAGGC
# Variants of: B1
# Assay: fraction ligated after 30 min (ligated reads / total reads); higher = more ligase activity
# Details: with F1*sub RNA substrate (template-directed ligation), 42 °C
# Procedure, shortened: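 Oligo-pool templates of ligase ribozyme variants were PCR-amplified, T7-transcribed and gel-purified. Ligated and unligated bands were gel-separated, reverse transcribed with barcoded primers, and MiSeq-sequenced; core bases were filtered at quality ≥20. Fraction ligated per variant was ligated reads over total reads.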
row,Variant,fraction ligated
1,T35A A48G,0.801
2,T35A A48T,0.8
3,T35A A56C,0.802
4,T35A A56G,0.799
5,T35A A56T,0.82
6,T35A A57C,0.82
7,T35A A57G,0.847
8,T35A A57T,0.809
9,T35A C40A,0.811
10,T35A C40G,0.834
11,T35A C40T,0.834
12,T35A C42A,0.845
13,T35A C42G,0.847
14,T35A C42T,0.85
15,T35A G38A,0.863
16,T35A G38C,0.855
17,T35A G38T,0.855
18,T35A G46A,0.837
19,T35A G46C,0.799
20,T35A G46T,0.783
21,T35A G47A,0.811
22,T35A G47C,0.221
23,T35A G47T,0.398
24,T35A G50A,0.638

row,Variant,fraction ligated
1,T35A G50C,0.474
2,T35A G50T,0.792
3,T35A G55A,0.868
4,T35A G55C,0.819
5,T35A G55T,0.834
6,T35A T43A,0.84
7,T35A T43C,0.794
8,T35A T43G,0.807
9,T35A T44A,0.838
10,T35A T44C,0.826
11,T35A T44G,0.821
12,T35A T45A,0.797
13,T35A T45C,0.788
14,T35A T45G,0.408
15,T35A T49A,0.763
16,T35A T49C,0.768
17,T35A T49G,0.817
18,T35C,0.839
19,T35C A36C,0.8
20,T35C A36G,0.847
21,T35C A36T,0.839
22,T35C A37C,0.845
23,T35C A37G,0.881
24,T35C A37T,0.847

row,Variant,fraction ligated
1,T35C A39C,0.824
2,T35C A39G,0.833
3,T35C A39T,0.825
4,T35C A41C,0.777
5,T35C A41G,0.783
6,T35C A41T,0.819
7,T35C A48C,0.766
8,T35C A48G,0.805
9,T35C A48T,0.792
10,T35C A56C,0.759
11,T35C A56G,0.782
12,T35C A56T,0.796
13,T35C A57C,0.813
14,T35C A57G,0.822
15,T35C A57T,0.825
16,T35C C40A,0.84
17,T35C C40G,0.817
18,T35C C40T,0.862
19,T35C C42A,0.841
20,T35C C42G,0.851
21,T35C C42T,0.856
22,T35C G38A,0.856
23,T35C G38C,0.815
24,T35C G38T,0.821

row,Variant,fraction ligated
1,T35C G46A,0.829
2,T35C G46C,0.792
3,T35C G46T,0.778
4,T35C G47A,0.811
5,T35C G47C,0.213
6,T35C G47T,0.36
7,T35C G50A,0.608
8,T35C G50C,0.437
9,T35C G50T,0.753
10,T35C G55A,0.841
11,T35C G55C,0.796
12,T35C G55T,0.804
13,T35C T43A,0.839
14,T35C T43C,0.777
15,T35C T43G,0.797
16,T35C T44A,0.851
17,T35C T44C,0.841
18,T35C T44G,0.823
19,T35C T45A,0.748
20,T35C T45C,0.783
21,T35C T45G,0.399
22,T35C T49A,0.756
23,T35C T49C,0.731
24,T35C T49G,0.804

row,Variant,fraction ligated
1,T35G,0.839
2,T35G A36C,0.824
3,T35G A36G,0.845
4,T35G A36T,0.851
5,T35G A37C,0.868
6,T35G A37G,0.847
7,T35G A37T,0.846
8,T35G A39C,0.816
9,T35G A39G,0.799
10,T35G A39T,0.836
11,T35G A41C,0.808
12,T35G A41G,0.816
13,T35G A41T,0.839
14,T35G A48C,0.755
15,T35G A48G,0.79
16,T35G A48T,0.789
17,T35G A56C,0.802
18,T35G A56G,0.791
19,T35G A56T,0.802
20,T35G A57C,0.805
21,T35G A57G,0.838
22,T35G A57T,0.804
23,T35G C40A,0.838
24,T35G C40G,0.837

row,Variant,fraction ligated
1,T35G C40T,0.851
2,T35G C42A,0.846
3,T35G C42G,0.857
4,T35G C42T,0.838
5,T35G G38A,0.847
6,T35G G38C,0.865
7,T35G G38T,0.845
8,T35G G46A,0.809
9,T35G G46C,0.803
10,T35G G46T,0.784
11,T35G G47A,0.78
12,T35G G47C,0.222
13,T35G G47T,0.391
14,T35G G50A,0.659
15,T35G G50C,0.486
16,T35G G50T,0.795
17,T35G G55A,0.819
18,T35G G55C,0.807
19,T35G G55T,0.809
20,T35G T43A,0.819
21,T35G T43C,0.807
22,T35G T43G,0.801
23,T35G T44A,0.843
24,T35G T44C,0.854

row,Variant,fraction ligated
1,T35G T44G,0.851
2,T35G T45A,0.772
3,T35G T45C,0.747
4,T35G T45G,0.388
5,T35G T49A,0.748
6,T35G T49C,0.727
7,T35G T49G,0.778
8,A36C,0.833
9,A36C A37C,0.821
10,A36C A37G,0.825
11,A36C A37T,0.837
12,A36C A39C,0.803
13,A36C A39G,0.826
14,A36C A39T,0.802
15,A36C A41C,0.782
16,A36C A41G,0.741
17,A36C A41T,0.814
18,A36C A48C,0.778
19,A36C A48G,0.784
20,A36C A48T,0.8
21,A36C A56C,0.804
22,A36C A56G,0.794
23,A36C A56T,0.804
